The values below come from patent publication US20230051266A1 (ABL BIO, published 2023).

For assay [1], the target named is T1, human BCMA on cells (CHOK1-hBCMA; H929 endogenous BCMA) (human, UniProt Q02223 1-184).
T1 construct: Cell-surface BCMA in FACS; also called mammalian expressed BCMA; native antigen
T1 sequence: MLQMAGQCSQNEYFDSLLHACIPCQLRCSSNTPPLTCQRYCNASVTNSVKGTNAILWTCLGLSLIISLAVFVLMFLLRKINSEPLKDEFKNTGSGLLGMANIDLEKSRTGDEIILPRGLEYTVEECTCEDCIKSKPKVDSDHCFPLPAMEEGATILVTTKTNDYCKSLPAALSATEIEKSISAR
The experiment in a line: FACS, 100 nM antibody, CHOK1-hBCMA cells. How it is done: (§1) To evaluate the antigen binding property, the antibody candidates were analyzed for their bindings to BCMA expressed cells by FACS. Briefly, CHOK1 expressing human BCMA (CHOK1-hBCMA) or H929 expressing endogenous BCMA cells were treated with the 100 nM of indicated antibodies at 4° C. for 1 hr. CHOK1 cells were used for BCMA-negative control. After washing by FACS buffer (1% (w/v) BSA in PBS), cells were incubated with the FTTC-anti-human IgG antibody at 4° C. for 1 hr and then subjected to FACS analysis. As shown in FIGS. 2d-2f, the anti-BCMAx4-1BB antibodies bind to BCMA expressed CHOK1-hBCMA and H929 cell lines but not BCMA negative CHOK1.
For orientation: A flow cytometer gives signals particle by particle.

Assay [2] concerns the target T2, human 4-1BB on GloResponse NFkB-luc2/4-1BB Jurkat cells (human, UniProt Q07011 24-255). The experiment in a line: cell-based or functional assay.
Assay [3] addresses T1, human BCMA on cells (CHOK1-hBCMA; H929 …). Briefly: FACS, 100 nM antibody, H929 cells. How it is done: as §1
The target in assay [4] is T2, human 4-1BB on GloResponse …. The experiment in a line: cell-based or functional assay. The source holds these as a separate data set.

T2 sequence (Q07011 24-255): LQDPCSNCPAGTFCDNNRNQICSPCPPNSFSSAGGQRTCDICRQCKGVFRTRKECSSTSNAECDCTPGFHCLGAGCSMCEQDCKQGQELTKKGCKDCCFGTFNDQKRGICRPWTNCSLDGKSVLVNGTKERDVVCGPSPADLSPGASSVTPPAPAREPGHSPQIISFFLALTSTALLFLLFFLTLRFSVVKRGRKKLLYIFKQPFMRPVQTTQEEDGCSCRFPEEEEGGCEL

B1: 5A6(NA)xAB41 (bispecific antibody, human IgG1, lambda, N297A)
heavy: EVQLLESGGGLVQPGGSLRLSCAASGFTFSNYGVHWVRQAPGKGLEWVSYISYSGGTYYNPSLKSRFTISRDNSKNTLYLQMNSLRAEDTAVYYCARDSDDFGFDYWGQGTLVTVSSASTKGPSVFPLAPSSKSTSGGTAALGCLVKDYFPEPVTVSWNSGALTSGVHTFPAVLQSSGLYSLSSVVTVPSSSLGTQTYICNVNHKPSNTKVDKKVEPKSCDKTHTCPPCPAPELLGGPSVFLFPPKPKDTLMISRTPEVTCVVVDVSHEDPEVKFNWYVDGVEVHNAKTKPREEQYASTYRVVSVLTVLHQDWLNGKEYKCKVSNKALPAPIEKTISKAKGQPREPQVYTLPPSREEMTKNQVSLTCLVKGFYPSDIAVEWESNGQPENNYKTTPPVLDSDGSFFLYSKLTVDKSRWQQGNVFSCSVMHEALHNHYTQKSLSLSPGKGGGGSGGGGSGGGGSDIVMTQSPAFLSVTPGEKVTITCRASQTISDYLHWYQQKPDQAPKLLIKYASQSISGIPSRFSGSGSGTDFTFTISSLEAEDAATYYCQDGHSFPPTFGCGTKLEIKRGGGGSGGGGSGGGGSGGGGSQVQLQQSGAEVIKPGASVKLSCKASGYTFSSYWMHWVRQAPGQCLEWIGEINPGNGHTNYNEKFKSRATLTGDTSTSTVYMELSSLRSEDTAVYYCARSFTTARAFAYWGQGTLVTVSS
light: QSVLTQPPSASGTPGQRVTISCQGDSLRSYYVNWYQQLPGTAPKLLIYDHSKRPTGVPDRFSGSKSGTSASLAISGLRSEDEADYYCQSYDSSTVVFGGGTKLTVLGQPKAAPSVTLFPPSSEELQANKATLVCLISDFYPGAVTVAWKADSSPVKAGVETTTPSKQSNNKYAASSYLSLTPEQWKSHRSYSCQVTHEGSTVEKTVAPAECS
notes: IgG1 N297A-scFv (VL-(G4S)4-VH)
In the case of B1, the “quantified FACS signal (name not given)” value stood at 636 in assay [1] and 39.9 in assay [3]. Moreover, the “4-1BB reporter bioassay (NFkB-luc2/4-1BB Jurkat) with CHOK1-hBCMA cells, EC50” value in assay [2] amounted to 0.0397 nM.

B2: 5A6(NA)x41B01 (bispecific antibody, human IgG1, lambda, N297A)
heavy: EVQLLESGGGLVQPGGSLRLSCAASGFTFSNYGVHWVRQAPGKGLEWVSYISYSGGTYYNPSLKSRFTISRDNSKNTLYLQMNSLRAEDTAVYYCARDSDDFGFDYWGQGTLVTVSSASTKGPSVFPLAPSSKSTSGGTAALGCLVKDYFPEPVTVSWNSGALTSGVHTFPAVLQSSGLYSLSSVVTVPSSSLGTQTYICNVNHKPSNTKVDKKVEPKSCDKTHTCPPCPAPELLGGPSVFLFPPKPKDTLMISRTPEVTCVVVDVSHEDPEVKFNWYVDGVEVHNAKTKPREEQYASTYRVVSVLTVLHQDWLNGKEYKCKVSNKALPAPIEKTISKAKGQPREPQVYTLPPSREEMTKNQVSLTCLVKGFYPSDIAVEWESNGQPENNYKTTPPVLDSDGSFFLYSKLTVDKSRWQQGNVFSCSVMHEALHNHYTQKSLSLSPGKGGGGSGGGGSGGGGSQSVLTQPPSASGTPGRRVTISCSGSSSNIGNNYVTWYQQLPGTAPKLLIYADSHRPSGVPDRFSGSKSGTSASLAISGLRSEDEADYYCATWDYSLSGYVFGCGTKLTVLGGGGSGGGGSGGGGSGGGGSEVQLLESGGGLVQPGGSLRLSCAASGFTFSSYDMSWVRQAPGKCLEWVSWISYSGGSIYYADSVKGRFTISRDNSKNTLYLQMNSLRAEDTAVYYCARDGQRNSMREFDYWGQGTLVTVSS
light: QSVLTQPPSASGTPGQRVTISCQGDSLRSYYVNWYQQLPGTAPKLLIYDHSKRPTGVPDRFSGSKSGTSASLAISGLRSEDEADYYCQSYDSSTVVFGGGTKLTVLGQPKAAPSVTLFPPSSEELQANKATLVCLISDFYPGAVTVAWKADSSPVKAGVETTTPSKQSNNKYAASSYLSLTPEQWKSHRSYSCQVTHEGSTVEKTVAPAECS
notes: IgG1 N297A-scFv; also called 5A6(NA) x41B01 (1A10)
Consider B2, for which the “4-1BB reporter bioassay (NFkB-luc2/4-1BB Jurkat) with H929 cells, EC50” value (shortened to “4-1BB reporter bioassay … with H929 cells, EC50”) in assay [4] worked out at 3.16 nM. Besides, the figures for the “quantified FACS signal (name not given)” value in assay [1] and in assay [3] were 652 and 43.8, respectively. Further, in assay [2], the “4-1BB reporter bioassay (NFkB-luc2/4-1BB Jurkat) with CHOK1-hBCMA cells, EC50” value was 0.0616 nM.

B3: 5A6(NA)x41B02 (bispecific antibody, human IgG1, lambda, N297A)
heavy: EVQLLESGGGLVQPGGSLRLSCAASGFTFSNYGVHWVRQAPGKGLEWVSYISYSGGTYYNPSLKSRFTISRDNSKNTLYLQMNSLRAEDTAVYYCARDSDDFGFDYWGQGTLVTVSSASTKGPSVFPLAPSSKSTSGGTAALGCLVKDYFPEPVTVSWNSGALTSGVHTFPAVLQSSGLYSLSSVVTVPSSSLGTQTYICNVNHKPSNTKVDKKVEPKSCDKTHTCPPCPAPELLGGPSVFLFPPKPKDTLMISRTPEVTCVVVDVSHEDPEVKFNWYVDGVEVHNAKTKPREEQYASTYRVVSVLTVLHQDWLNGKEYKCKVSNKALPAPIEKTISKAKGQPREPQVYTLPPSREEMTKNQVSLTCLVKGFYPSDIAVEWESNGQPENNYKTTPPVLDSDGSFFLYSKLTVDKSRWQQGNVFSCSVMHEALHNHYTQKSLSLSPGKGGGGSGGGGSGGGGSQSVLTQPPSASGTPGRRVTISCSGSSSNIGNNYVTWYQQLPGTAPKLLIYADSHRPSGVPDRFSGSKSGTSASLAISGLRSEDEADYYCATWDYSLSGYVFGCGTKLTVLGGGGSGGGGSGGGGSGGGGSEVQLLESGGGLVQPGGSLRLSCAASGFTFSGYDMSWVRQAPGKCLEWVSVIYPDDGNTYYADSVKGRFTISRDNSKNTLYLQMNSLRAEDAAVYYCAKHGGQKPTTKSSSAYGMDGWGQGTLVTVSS
light: QSVLTQPPSASGTPGQRVTISCQGDSLRSYYVNWYQQLPGTAPKLLIYDHSKRPTGVPDRFSGSKSGTSASLAISGLRSEDEADYYCQSYDSSTVVFGGGTKLTVLGQPKAAPSVTLFPPSSEELQANKATLVCLISDFYPGAVTVAWKADSSPVKAGVETTTPSKQSNNKYAASSYLSLTPEQWKSHRSYSCQVTHEGSTVEKTVAPAECS
notes: IgG1 N297A-scFv (VL-(G4S)4-VH); also called 5A6(NA) x41B02 (1A12)
Turning to B3, the “4-1BB reporter bioassay … with H929 cells, EC50” value in assay [4] came out at 14.3 nM. Also, the “quantified FACS signal (name not given)” value in assay [1] was found to be 646; in assay [3], 40.3. Also, the “4-1BB reporter bioassay (NFkB-luc2/4-1BB Jurkat) with CHOK1-hBCMA cells, EC50” value in assay [2] is 0.0413 nM.

B4: 5B5(NA)x41B02 (bispecific antibody, human IgG1, kappa, N297A)
heavy: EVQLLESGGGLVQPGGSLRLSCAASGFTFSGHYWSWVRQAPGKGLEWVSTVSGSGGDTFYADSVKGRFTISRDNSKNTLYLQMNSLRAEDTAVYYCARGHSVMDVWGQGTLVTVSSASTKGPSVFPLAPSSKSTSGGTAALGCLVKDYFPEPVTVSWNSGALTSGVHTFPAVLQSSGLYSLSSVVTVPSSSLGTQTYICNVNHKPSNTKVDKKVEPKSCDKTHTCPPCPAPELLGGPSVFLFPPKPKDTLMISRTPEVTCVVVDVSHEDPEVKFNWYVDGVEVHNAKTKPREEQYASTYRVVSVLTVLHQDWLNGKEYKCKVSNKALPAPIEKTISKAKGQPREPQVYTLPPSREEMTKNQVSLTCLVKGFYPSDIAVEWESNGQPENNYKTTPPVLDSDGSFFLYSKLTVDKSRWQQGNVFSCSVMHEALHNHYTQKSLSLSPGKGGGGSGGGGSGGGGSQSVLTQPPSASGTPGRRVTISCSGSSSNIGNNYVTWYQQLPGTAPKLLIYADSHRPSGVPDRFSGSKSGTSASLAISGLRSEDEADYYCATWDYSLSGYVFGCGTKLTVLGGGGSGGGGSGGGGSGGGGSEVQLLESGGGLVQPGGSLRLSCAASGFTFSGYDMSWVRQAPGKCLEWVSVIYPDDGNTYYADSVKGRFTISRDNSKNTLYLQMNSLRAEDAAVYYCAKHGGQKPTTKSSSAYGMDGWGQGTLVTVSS
light: EIVLTQSPGTLSLSPGERATLSCRASQGIDSYVAWYQQKPGQAPRLLIYDASLRATGIPDRFSGSGSGTDFTLTISRLEPEDFAVYYCQQYNSWPITFGQGTKLEIKRTVAAPSVFIFPPSDEQLKSGTASVVCLLNNFYPREAKVQWKVDNALQSGNSQESVTEQDSKDSTYSLSSTLTLSKADYEKHKVYACEVTHQGLSSPVTKSFNRGEC
notes: IgG1 N297A-scFv (VL-(G4S)4-VH); also called 5B5(NA) x41B02 (1A12)
As to B4, in assay [4], the “4-1BB reporter bioassay … with H929 cells, EC50” value was determined as 12.1 nM. For the same molecule, the “quantified FACS signal (name not given)” value was 484 in assay [1] and 14.9 in assay [3]. For the same molecule, in assay [2], the “4-1BB reporter bioassay (NFkB-luc2/4-1BB Jurkat) with CHOK1-hBCMA cells, EC50” value was found to be 0.003 nM.

B5: 5B5(NA)xAB41 (bispecific antibody, human IgG1, kappa, N297A)
heavy: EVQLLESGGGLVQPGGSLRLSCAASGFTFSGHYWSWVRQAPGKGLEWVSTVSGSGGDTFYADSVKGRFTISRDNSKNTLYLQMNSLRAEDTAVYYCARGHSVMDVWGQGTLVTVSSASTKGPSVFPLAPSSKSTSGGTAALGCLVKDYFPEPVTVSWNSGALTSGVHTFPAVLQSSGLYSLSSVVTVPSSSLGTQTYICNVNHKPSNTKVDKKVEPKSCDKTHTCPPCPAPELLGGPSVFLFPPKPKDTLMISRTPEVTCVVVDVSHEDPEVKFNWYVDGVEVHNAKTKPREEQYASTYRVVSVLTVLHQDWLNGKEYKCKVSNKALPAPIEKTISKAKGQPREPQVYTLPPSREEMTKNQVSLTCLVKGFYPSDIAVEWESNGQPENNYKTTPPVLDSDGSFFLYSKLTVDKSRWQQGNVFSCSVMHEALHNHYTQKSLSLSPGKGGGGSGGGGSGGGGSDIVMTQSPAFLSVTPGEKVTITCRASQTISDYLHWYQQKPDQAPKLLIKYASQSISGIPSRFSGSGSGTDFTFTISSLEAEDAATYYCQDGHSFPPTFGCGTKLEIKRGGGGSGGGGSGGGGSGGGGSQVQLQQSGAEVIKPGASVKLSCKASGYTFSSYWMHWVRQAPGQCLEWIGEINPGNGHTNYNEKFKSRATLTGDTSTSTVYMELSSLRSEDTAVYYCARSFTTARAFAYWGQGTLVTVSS
light: EIVLTQSPGTLSLSPGERATLSCRASQGIDSYVAWYQQKPGQAPRLLIYDASLRATGIPDRFSGSGSGTDFTLTISRLEPEDFAVYYCQQYNSWPITFGQGTKLEIKRTVAAPSVFIFPPSDEQLKSGTASVVCLLNNFYPREAKVQWKVDNALQSGNSQESVTEQDSKDSTYSLSSTLTLSKADYEKHKVYACEVTHQGLSSPVTKSFNRGEC
notes: as for B1
For B5, the “quantified FACS signal (name not given)” value in assay [1] worked out at 477; in assay [3], 14.1. For the same molecule, in assay [2], the “4-1BB reporter bioassay (NFkB-luc2/4-1BB Jurkat) with CHOK1-hBCMA cells, EC50” value worked out at 0.0741 nM.

B6: 5D5(NA)xAB41 (bispecific antibody, human IgG1, kappa, N297A)
heavy: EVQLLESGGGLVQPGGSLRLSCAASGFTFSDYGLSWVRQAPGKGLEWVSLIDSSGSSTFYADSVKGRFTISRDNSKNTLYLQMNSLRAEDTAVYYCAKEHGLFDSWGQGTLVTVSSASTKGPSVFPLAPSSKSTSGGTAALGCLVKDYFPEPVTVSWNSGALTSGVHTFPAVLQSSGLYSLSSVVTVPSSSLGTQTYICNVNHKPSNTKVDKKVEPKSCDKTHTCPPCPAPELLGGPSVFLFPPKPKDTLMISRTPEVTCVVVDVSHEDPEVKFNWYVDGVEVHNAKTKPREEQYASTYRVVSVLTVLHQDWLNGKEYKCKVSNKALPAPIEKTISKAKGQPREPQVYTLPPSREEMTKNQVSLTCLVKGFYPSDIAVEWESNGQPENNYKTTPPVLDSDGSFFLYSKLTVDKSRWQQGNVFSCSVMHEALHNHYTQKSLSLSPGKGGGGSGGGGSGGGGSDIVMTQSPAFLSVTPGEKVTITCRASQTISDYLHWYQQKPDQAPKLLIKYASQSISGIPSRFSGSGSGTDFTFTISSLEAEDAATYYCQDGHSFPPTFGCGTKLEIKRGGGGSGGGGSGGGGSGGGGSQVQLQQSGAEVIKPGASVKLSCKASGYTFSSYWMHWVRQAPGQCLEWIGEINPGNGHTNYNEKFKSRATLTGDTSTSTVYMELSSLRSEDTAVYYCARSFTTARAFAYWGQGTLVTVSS
light: EIVLTQSPGTLSLSPGERATLSCKASQDIDDDINWYQQKPGQAPRLLIYDASLRATGIPDRFSGSGSGTDFTLTISRLEPEDFAVYYCQQSLRTPITFGQGTKLEIKRTVAAPSVFIFPPSDEQLKSGTASVVCLLNNFYPREAKVQWKVDNALQSGNSQESVTEQDSKDSTYSLSSTLTLSKADYEKHKVYACEVTHQGLSSPVTKSFNRGEC
notes: as for B1
With B6, the “quantified FACS signal (name not given)” value is 585 in assay [1] and 19.7 in assay [3]. In assay [2], the “4-1BB reporter bioassay (NFkB-luc2/4-1BB Jurkat) with CHOK1-hBCMA cells, EC50” value is 0.0426 nM.
